We go through 1 substance from paper PMC8675452.

The test has as its target biotinylated MPER peptide (MPERbiot) (HIV (strain not stated)). The test can be described thus: BLI.

What is called koff is a measure of how fast the partners let go of each other.

Substance “trispecific anti-HIV antibody (SAR441236)” yielded a koff of 0.00126 s⁻¹.
